Experimental data published in IntAct's records for PubMed 29892012.

B1: Zinc finger CCCH domain-containing protein 11A (Homo sapiens), O75152 (parent)
chain: MPNQGEDCYFFFYSTCTKGDSCPFRHCEAAIGNETVCTLWQEGRCFRQVCRFRHMEIDKKRSEIPCYWENQPTGCQKLNCAFHHNRGRYVDGLFLPPSKTVLPTVPESPEEEVKASQLSVQQNKLSVQSNPSPQLRSVMKVESSENVPSPTHPPVVINAADDDEDDDDQFSEEGDETKTPTLQPTPEVHNGLRVTSVRKPAVNIKQGECLNFGIKTLEEIKSKKMKEKSKKQGEGSSGVSSLLLHPEPVPGPEKENVRTVVRTVTLSTKQGEEPLVRLSLTERLGKRKFSAGGDSDPPLKRSLAQRLGKKVEAPETNIDKTPKKAQVSKSLKERLGMSADPDNEDATDKVNKVGEIHVKTLEEILLERASQKRGELQTKLKTEGPSKTDDSTSGARSSSTIRIKTFSEVLAEKKHRQQEAERQKSKKDTTCIKLKIDSEIKKTVVLPPIVASRGQSEEPAGKTKSMQEVHIKTLEEIKLEKALRVQQSSESSTSSPSQHEATPGARRLLRITKRTGMKEEKNLQEGNEVDSQSSIRTEAKEASGETTGVDITKIQVKRCETMREKHMQKQQEREKSVLTPLRGDVASCNTQVAEKPVLTAVPGITRHLTKRLPTKSSQKVEVETSGIGDSLLNVKCAAQTLEKRGKAKPKVNVKPSVVKVVSSPKLAPKRKAVEMHAAVIAAVKPLSSSSVLQEPPAKKAAVAVVPLVSEDKSVTVPEAENPRDSLVLPPTQSSSDSSPPEVSGPSSSQMSMKTRRLSSASTGKPPLSVEDDFEKLIWEISGGKLEAEIDLDPGKDEDDLLLELSEMIDS
B2: Abl interactor 2 (Homo sapiens), Q9NYB9 (parent)
chain: MAELQMLLEEEIPGGRRALFDSYTNLERVADYCENNYIQSADKQRALEETKAYTTQSLASVAYLINTLANNVLQMLDIQASQLRRMESSINHISQTVDIHKEKVARREIGILTTNKNTSRTHKIIAPANLERPVRYIRKPIDYTILDDIGHGVKWLLRFKVSTQNMKMGGLPRTTPPTQKPPSPPMSGKGTLGRHSPYRTLEPVRPPVVPNDYVPSPTRNMAPSQQSPVRTASVNQRNRTYSSSGSSGGSHPSSRSSSRENSGSGSVGVPIAVPTPSPPSVFPAPAGSAGTPPLPATSASAPAPLVPATVPSSTAPNAAAGGAPNLADGFTSPTPPVVSSTPPTGHPVQFYSMNRPASRHTPPTIGGSLPYRRPPSITSQTSLQNQMNGGPFYSQNPVSDTPPPPPPVEEPVFDESPPPPPPPEDYEEEEAAVVEYSDPYAEEDPPWAPRSYLEKVVAIYDYTKDKEDELSFQEGAIIYVIKKNDDGWYEGVMNGVTGLFPGNYVESIMHYSE
partner: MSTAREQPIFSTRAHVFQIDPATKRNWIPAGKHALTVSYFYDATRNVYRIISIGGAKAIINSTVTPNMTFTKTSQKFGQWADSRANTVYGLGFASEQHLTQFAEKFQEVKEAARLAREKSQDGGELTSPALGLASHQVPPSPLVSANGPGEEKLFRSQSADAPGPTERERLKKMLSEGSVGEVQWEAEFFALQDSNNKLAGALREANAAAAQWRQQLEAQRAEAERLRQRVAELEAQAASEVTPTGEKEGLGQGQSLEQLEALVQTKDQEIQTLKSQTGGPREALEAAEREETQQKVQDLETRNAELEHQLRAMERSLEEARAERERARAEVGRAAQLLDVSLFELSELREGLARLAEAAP
B3: Retinoic acid receptor alpha (Homo sapiens), P10276 (parent)
chain: MASNSSSCPTPGGGHLNGYPVPPYAFFFPPMLGGLSPPGALTTLQHQLPVSGYSTPSPATIETQSSSSEEIVPSPPSPPPLPRIYKPCFVCQDKSSGYHYGVSACEGCKGFFRRSIQKNMVYTCHRDKNCIINKVTRNRCQYCRLQKCFEVGMSKESVRNDRNKKKKEVPKPECSESYTLTPEVGELIEKVRKAHQETFPALCQLGKYTTNNSSEQRVSLDIDLWDKFSELSTKCIIKTVEFAKQLPGFTTLTIADQITLLKAACLDILILRICTRYTPEQDTMTFSDGLTLNRTQMHNAGFGPLTDLVFAFANQLLPLEMDDAETGLLSAICLICGDRQDLEQPDRVDMLQEPLLEALKVYVRKRRPSRPHMFPKMLMKITDLRSISAKGAERVITLKMEIPGSMPPLIQEMLENSEGLDTLSGQPGGGGRDGGGLAPPPGSCSPSLSPSSNRSSPATHSP
partner: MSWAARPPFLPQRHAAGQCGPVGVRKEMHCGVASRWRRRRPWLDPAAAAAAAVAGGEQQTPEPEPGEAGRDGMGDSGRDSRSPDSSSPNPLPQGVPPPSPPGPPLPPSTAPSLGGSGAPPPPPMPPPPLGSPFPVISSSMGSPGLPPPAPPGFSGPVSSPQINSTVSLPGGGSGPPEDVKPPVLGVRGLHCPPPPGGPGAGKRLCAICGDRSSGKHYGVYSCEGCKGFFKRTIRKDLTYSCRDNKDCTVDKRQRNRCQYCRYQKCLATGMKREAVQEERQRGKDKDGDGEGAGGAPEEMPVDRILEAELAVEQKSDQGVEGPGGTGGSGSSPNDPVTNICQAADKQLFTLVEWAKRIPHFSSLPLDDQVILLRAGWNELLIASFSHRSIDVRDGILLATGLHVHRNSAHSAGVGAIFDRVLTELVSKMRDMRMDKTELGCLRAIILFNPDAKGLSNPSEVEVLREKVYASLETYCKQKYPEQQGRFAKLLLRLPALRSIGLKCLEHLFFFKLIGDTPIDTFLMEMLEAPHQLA
B4: Late cornified envelope protein 1B (Homo sapiens), Q5T7P3 (parent)
chain: MSCQQNQQQCQPPPKCIPKCPPKCLTPRCPPKCPPKCPPVSSCCSVSSGGCCGSSSGGSCGSSSGGCCSSGGGGCCLSHHRRRRSHCHRPQSSGCCSQPSGGSSCCGGGSGQHSGGCC
partner: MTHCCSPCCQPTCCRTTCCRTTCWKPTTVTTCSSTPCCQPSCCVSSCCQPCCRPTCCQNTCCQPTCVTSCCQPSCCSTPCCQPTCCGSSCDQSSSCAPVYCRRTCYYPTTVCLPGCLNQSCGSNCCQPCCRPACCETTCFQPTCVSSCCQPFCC

Variants of: B1
Details: with mlh1_human MLH1, P40692
Chain of mlh1_human MLH1, P40692 (P40692 whole entry): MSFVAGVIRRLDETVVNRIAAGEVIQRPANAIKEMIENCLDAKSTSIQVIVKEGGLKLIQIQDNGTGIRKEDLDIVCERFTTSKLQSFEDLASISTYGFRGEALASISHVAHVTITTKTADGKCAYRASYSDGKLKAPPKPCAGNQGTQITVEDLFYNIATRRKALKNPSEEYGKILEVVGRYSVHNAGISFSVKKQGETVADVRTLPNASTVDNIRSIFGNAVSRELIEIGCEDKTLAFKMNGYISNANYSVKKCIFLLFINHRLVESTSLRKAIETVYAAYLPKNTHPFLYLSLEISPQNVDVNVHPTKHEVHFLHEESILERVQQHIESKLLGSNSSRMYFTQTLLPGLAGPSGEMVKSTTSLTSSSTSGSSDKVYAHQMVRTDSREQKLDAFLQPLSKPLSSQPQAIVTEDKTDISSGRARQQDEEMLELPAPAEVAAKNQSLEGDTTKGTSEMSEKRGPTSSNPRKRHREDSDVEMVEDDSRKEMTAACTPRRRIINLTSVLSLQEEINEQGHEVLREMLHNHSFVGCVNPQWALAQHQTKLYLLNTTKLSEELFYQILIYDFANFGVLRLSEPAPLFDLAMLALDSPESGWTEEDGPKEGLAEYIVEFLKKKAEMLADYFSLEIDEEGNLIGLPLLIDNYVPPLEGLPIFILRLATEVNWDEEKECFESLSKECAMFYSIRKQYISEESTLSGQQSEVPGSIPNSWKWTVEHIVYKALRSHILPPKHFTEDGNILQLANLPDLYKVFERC

effect of a mutation on the interaction	Variant
with no effect	E408D

Variants of: B2
Details: with home3_human HOMER3, Q9NSC5

effect of a mutation on the interaction	Variant
with no effect	E202K

Variants of: B2
Details: with home3_human HOMER3, Q9NSC5
Remark: another data set of the same source

effect of a mutation on the interaction	Variant
with no effect	R373C

Variants of: B3
Details: with rxrb_human RXRB

effect of a mutation on the interaction	Variant
disrupting interaction strength	P375L
with no effect	R83H

Variants of: B4
Details: with kra94_human KRTAP9-4, Q9BYQ2

effect of a mutation on the interaction	Variant
disrupting interaction strength	C16Y
